Literature values, collected in publication PMC8760628.

Molecular target: IL-18 mature (Homo sapiens) (UniProt Q14116)
Sequence (Q14116 37-193): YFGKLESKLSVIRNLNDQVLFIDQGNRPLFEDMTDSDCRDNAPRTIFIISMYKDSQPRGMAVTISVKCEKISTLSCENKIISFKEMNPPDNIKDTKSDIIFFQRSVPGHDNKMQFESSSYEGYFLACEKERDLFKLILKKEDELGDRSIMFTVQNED

IL-18BP, sequence (O95998 31-194): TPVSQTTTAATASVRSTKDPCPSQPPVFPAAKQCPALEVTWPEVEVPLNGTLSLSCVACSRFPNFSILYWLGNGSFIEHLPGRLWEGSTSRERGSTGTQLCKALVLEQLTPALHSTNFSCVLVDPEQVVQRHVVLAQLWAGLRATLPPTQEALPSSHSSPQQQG

For IL-18BP (from UniProt O95998), the Kd is given as 0.5 nM.
